Experiment [1] concerns the target GAPDH (UniProt P04406). The following applies: cited from earlier work.
Experiment [2] deals with Glyceraldehyde-3-phosphate dehydrogenase (rabbit muscle GAPDH) (rabbit) (UniProt P46406).
Chain of UniProt P46406 (P46406 whole entry): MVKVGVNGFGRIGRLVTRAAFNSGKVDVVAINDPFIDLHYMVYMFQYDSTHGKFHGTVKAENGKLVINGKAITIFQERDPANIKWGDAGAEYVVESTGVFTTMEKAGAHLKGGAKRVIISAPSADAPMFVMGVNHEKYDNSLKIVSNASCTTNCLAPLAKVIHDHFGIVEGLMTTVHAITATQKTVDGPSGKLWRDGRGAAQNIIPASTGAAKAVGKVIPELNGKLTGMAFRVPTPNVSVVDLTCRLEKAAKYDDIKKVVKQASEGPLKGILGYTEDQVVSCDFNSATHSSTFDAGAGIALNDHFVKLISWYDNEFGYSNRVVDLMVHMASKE

Chain of Lactoferrin (P02788 20-710): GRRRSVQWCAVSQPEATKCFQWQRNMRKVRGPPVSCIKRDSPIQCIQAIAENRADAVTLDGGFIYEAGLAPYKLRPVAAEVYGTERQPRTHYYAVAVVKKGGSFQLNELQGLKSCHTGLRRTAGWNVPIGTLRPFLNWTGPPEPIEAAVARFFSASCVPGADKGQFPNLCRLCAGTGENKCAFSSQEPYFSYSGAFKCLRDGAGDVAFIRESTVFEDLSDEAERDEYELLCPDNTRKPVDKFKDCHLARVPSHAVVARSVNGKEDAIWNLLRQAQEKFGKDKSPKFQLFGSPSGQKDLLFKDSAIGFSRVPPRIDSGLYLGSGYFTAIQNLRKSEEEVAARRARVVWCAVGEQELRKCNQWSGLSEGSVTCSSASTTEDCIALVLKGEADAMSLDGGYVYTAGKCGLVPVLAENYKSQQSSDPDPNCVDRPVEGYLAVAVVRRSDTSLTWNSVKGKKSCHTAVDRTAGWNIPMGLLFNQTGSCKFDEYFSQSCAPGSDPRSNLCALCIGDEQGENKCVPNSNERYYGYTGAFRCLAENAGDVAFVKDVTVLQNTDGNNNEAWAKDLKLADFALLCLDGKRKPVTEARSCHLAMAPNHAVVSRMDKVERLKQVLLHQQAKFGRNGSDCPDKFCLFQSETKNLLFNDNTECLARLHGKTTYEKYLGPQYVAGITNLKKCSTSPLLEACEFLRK
Chain of UniProt P04406 (P04406 2-335): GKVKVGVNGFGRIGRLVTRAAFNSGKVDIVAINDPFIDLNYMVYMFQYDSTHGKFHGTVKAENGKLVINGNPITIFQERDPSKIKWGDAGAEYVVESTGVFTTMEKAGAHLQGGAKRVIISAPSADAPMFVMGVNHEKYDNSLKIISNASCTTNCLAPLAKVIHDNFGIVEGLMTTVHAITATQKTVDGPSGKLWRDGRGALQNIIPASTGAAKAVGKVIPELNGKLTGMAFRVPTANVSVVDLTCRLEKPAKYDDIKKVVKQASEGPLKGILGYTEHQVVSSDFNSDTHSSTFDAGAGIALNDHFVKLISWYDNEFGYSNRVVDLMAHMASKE

Lactoferrin (from UniProt P02788): in experiment [1], the dissociation constant (Kd) was 43.8 nM.
In experiment [2], human lactoferrin (natural protein) showed a Fold change in Lactoferrin MFI of cells internalizing both GAPDH and Lf vs. only lactoferrin +ve cells; CHO of 4.95 fold; a Fold change in Lactoferrin MFI of cells internalizing both GAPDH and Lf vs. only lactoferrin +ve cells; CHO-TRVb of 2.83 fold; a Fold change in Lactoferrin MFI of cells internalizing both GAPDH and Lf vs. only lactoferrin +ve cells; Human Lymphocytes of 1.27 fold; a Fold change in Lactoferrin MFI of cells internalizing both GAPDH and Lf vs. only lactoferrin +ve cells; J774 of 2.62 fold. In experiment [2], this substance registered a Fold change in Lactoferrin MFI of cells internalizing both GAPDH and Lf vs. only lactoferrin +ve cells; K562 of 1.6 fold; a Fold change in Lactoferrin MFI of cells internalizing both GAPDH and Lf vs. only lactoferrin +ve cells; Mouse Bone Marrow cells of 3.7 fold; a Fold change in Lactoferrin MFI of cells internalizing both GAPDH and Lf vs. only lactoferrin +ve cells; Mouse Enterocytes of 5.52 fold; a Fold change in Lactoferrin MFI of cells internalizing both GAPDH and Lf vs. only lactoferrin +ve cells; Mouse Hepatocytes of 4.28 fold. In experiment [2], this substance returned a Fold change in Lactoferrin MFI of cells internalizing both GAPDH and Lf vs. only lactoferrin +ve cells; Mouse Peritoneal Macrophages (Ex vivo) of 1.17 fold; a Fold change in Lactoferrin MFI of cells internalizing both GAPDH and Lf vs. only lactoferrin +ve cells; Mouse Spleen Macrophages of 2.1 fold; a Fold change in Lactoferrin MFI of cells internalizing both GAPDH and Lf vs. only lactoferrin +ve cells; Mouse peritoneum cells (In-Vivo) of 6.1 fold; a Fold change in Lactoferrin MFI of cells internalizing both GAPDH and Lf vs. only lactoferrin +ve cells; Neuro-2A (N2A) of 4.02 fold. The Fold change in Lactoferrin MFI of cells internalizing both GAPDH and Lf vs. only lactoferrin +ve cells; PMA activated THP1 in experiment [2] is 2.07 fold.

Usually Kd stands for the concentration at which binding is half-saturated.
